± gives the uncertainty stated by the source.
Assay: self-splicing fitness, log relative to wild type (ln ratio); higher = more splicing; Tetrahymena group I intron in knt gene, E. coli kanamycin selection, DiMSum; sequences stand for … in CUCUCU…GGAGGGAAAAGUUAUCAGGCAUGCACCUGGUAGCUAGUCUUUAAACCAAUAGAUUGCAUCGGUUUAAAAGGCAAGACCGUCAAAUUGCGGGAAAGGGGUCAACAGCCGUUCAGUACCAAGUCUCAGGGGAAACUUUGAGAUGGCCUUGCAAAGGGUAUGGUAAUAAGCUGACGGACAUGGUCCUAACCACGCAGCCAAGUCCUAAGUCAACAGAUCUUCUGUUGAUAUGGAUGCAGUUCACAGACUAAAUGUCGGUCGGGGAAGAUGUAUUCUUCUCAUAAGAUAUAGUCGGACCUCUCCUUAAUGGGAGCUAGCGGAUGAAGUGAUGCAACACUGGAGCCGCUGGGAACUAAUUUGUAUGCGAAAGUAUAUUGAUUAGUUUUGGAGUACUCGUGGUCG
Summary of the method: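 Six replicate transformations of E. coli BL21(DE3) with a pET-22b(+) library were grown overnight at 37°C or 30°C. The library randomised all eight P1ex-region intron nucleotides, the intron lying in the knt kanamycin-resistance gene, and plates were LB agar with or without 25 μg/mL kanamycin plus 100 μg/mL carbenicillin, 50 μM IPTG and 0.2% rhamnose. Pooled colonies were amplicon-sequenced on an Illumina HiSeq 2500, and fitness is the DiMSum error-weighted combination of wild-type-normalised replicate fold changes, kanamycin versus none.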

Sequence | self-splicing fitness (ln) (30 °C) | self-splicing fitness (ln) (37 °C)
GGGCAGCAAUAUUACGUAUU | -0.944 ± 0.061 | 0.0363 ± 0.074
UUAUAGCAAUAUUACGGGUA | -2.85 ± 0.2 | -1.65 ± 0.19
CAGAAGCAAUAUUACGAGAG | -2.78 ± 0.17 | -1.98 ± 0.19
AGGCAGCAAUAUUACGCCUA | -1.98 ± 0.23 | -0.0372 ± 0.14
AUGGAGCAAUAUUACGUCUA | -1.38 ± 0.23 | -0.778 ± 0.19
GCAAAGCAAUAUUACGUGCG | -0.856 ± 0.067 | -0.144 ± 0.095
CAAGAGCAAUAUUACGCUGA | -2.97 ± 0.19 | -2.08 ± 0.21
CAAUAGCAAUAUUACGAAAG | -1.47 ± 0.082 | -0.294 ± 0.13
UUAGAGCAAUAUUACGCAAA | -1.89 ± 0.14 | -0.682 ± 0.16
ACGGAGCAAUAUUACGAGUC | -3.83 ± 0.33 | -2.64 ± 0.38
AUCUAGCAAUAUUACGCCCG | -0.765 ± 0.38 | -0.733 ± 0.3
AAGGAGCAAUAUUACGCUAU | -3.76 ± 0.4 | -1.69 ± 0.26
GGCGAGCAAUAUUACGAAGA | – | -1.49 ± 0.47
UACAAGCAAUAUUACGUGAC | -3.89 ± 0.18 | -1.85 ± 0.1
CUUUAGCAAUAUUACGCCGG | -1.74 ± 0.16 | -1.22 ± 0.19
CCCAAGCAAUAUUACGGUUU | -3.72 ± 0.12 | -2.92 ± 0.11
UCUAAGCAAUAUUACGUUGC | -3.92 ± 0.34 | -2.81 ± 0.29
UAACAGCAAUAUUACGCCUA | -0.308 ± 0.064 | 0.598 ± 0.083
AACUAGCAAUAUUACGAGCG | -0.883 ± 0.089 | -0.592 ± 0.098
AGCGAGCAAUAUUACGGGCG | -1.23 ± 0.08 | -0.431 ± 0.099
CAAUAGCAAUAUUACGAUGA | -2.26 ± 0.18 | -1.54 ± 0.23

Sequence | self-splicing fitness (ln) (30 °C) | self-splicing fitness (ln) (37 °C)
UUAGAGCAAUAUUACGGCAC | -3.59 ± 0.38 | -1.95 ± 0.38
GCUGAGCAAUAUUACGACGA | – | -0.876 ± 0.39
UGGCAGCAAUAUUACGCGGG | -2.76 ± 0.27 | -1.48 ± 0.24
CCUAAGCAAUAUUACGUUUG | -4.59 ± 0.18 | -3.16 ± 0.16
UCAGAGCAAUAUUACGCGCU | – | -1.62 ± 0.29
UACAAGCAAUAUUACGGCAU | -1.49 ± 0.068 | -0.705 ± 0.072
GUUCAGCAAUAUUACGCGUU | -0.588 ± 0.062 | 0.431 ± 0.067
GUUAAGCAAUAUUACGGCUG | -0.765 ± 0.11 | -0.135 ± 0.13
CGGUAGCAAUAUUACGAUGA | -1.38 ± 0.13 | -0.66 ± 0.16
ACGGAGCAAUAUUACGGGUU | -3.25 ± 0.16 | -3.6 ± 0.3
UUUCAGCAAUAUUACGUACC | -3.51 ± 0.25 | -2.14 ± 0.17
ACGCAGCAAUAUUACGCCUG | -2.79 ± 0.2 | -2.42 ± 0.33
AAGGAGCAAUAUUACGCGAU | -2.06 ± 0.15 | -2.29 ± 0.28
GCCGAGCAAUAUUACGUCGU | -0.646 ± 0.081 | -0.197 ± 0.1
GUUUAGCAAUAUUACGUCUG | -2.05 ± 0.18 | -1.84 ± 0.3
AAUUAGCAAUAUUACGGGCC | – | -1.11 ± 0.49
UAUUAGCAAUAUUACGUGCA | -0.96 ± 0.16 | -0.986 ± 0.16
CGGAAGCAAUAUUACGGAUU | -4.05 ± 0.2 | -2.36 ± 0.13
GAAUAGCAAUAUUACGAUUA | -0.73 ± 0.093 | 0.156 ± 0.11
ACACAGCAAUAUUACGGUCA | -0.813 ± 0.071 | 0.0237 ± 0.077
UGGUAGCAAUAUUACGGAUU | -3.77 ± 0.4 | -0.91 ± 0.31

Sequence | self-splicing fitness (ln) (30 °C) | self-splicing fitness (ln) (37 °C)
AAGCAGCAAUAUUACGACUC | -0.122 ± 0.097 | 0.677 ± 0.13
UAACAGCAAUAUUACGGAGG | -3.85 ± 0.16 | -1.87 ± 0.091
AAGGAGCAAUAUUACGGAUG | -3.8 ± 0.21 | -3.29 ± 0.35
AGUUAGCAAUAUUACGCCUG | -1.74 ± 0.21 | -1.46 ± 0.25
ACUCAGCAAUAUUACGACGG | -0.71 ± 0.072 | 0.0441 ± 0.12
UAAAAGCAAUAUUACGGAGC | -4.1 ± 0.25 | -3.36 ± 0.28
AUGGAGCAAUAUUACGGCCU | -1.32 ± 0.19 | -0.862 ± 0.24
AUUAAGCAAUAUUACGGUUA | -1.18 ± 0.095 | -1.19 ± 0.085
AUACAGCAAUAUUACGCCAU | -2.01 ± 0.13 | -0.757 ± 0.14
UACAAGCAAUAUUACGACAG | -1.15 ± 0.092 | -0.241 ± 0.11
CCUUAGCAAUAUUACGCAAG | – | -3.09 ± 0.33
AGUUAGCAAUAUUACGAAUU | -1.62 ± 0.11 | -0.649 ± 0.12
CUGAAGCAAUAUUACGUUUU | -3.46 ± 0.2 | -3.22 ± 0.17
UUAGAGCAAUAUUACGCUGC | – | -2.29 ± 0.37
GUCCAGCAAUAUUACGAUAG | -3.53 ± 0.14 | -2.89 ± 0.17
UGUAAGCAAUAUUACGCGUU | -2.69 ± 0.26 | -0.234 ± 0.2
ACUUAGCAAUAUUACGCAAA | -3.03 ± 0.41 | -1.24 ± 0.25
CUGGAGCAAUAUUACGUCGC | -2.03 ± 0.46 | -2.57 ± 0.48
UGGGAGCAAUAUUACGUCCA | -2.03 ± 0.12 | -1.13 ± 0.11
UAUGAGCAAUAUUACGCCAU | -2.15 ± 0.2 | -2.59 ± 0.3
